Data on three substances can be found in patent publication US20230242646A1.

Assay [1] deals with membrane-bound full-length human CD89 on HEK293F cells (human) (UniProt P24071). As to the kind of experiment: FACS HEK293F-huCD89; non-aggregated serum IgA.
Assay [2] shares this target. Kind of assay: FACS, antibody before heat-aggregated serum IgA on HEK293F-huCD89; IgA detected. A general note: Flow cytometry measures light scatter and fluorescence of single cells or particles in a stream.
For assay [3] the target is unchanged. Kind of assay: FACS HEK293F-huCD89, 10 ug/mL; competitor PE-MIP8a.
Assay [4] has the same target. As to the kind of experiment: FACS HEK293F-huCD89, titrated Ab; non-aggregated serum IgA.
Assay [5] has the same target. Kind of assay: FACS, antibody before non-aggregated serum IgA on HEK293F-huCD89; IgA detected.
The target is the same in assay [6]. Kind of assay: FACS HEK293F-huCD89, 10 ug/mL; competitor PE-A3.
For assay [7] the target is unchanged. As to the kind of experiment: FACS HEK293F-huCD89, 10 ug/mL; competitor PE-A59.
Assay [8] has the same target. Kind of assay: FACS, unlabelled antibody before A3-PE on HEK293F-huCD89.
The target is the same in assay [9]. As to the kind of experiment: FACS, antibody before heat-aggregated serum IgA on HEK293F-huCD89; IgA detected. This is another data set of the same source.
Assay [10] shares this target. Kind of assay: FACS HEK293F-huCD89; heat-aggregated serum IgA.
Assay [11] shares this target. As to the kind of experiment: FACS HEK293F-huCD89, titrated Ab; heat-aggregated serum IgA.
For assay [12] the target is unchanged. Kind of assay: FACS HEK293F-huCD89, 10 ug/mL; heat-aggregated serum IgA (similar with non-aggregated).
For assay [13] the target is unchanged. As to the kind of experiment: FACS, antibody before non-aggregated serum IgA on HEK293F-huCD89; IgA detected. The source holds these as a separate data set.
Assay [14] shares this target. As to the kind of experiment: FACS, unlabelled antibody before A59-PE on HEK293F-huCD89.
For assay [15] the target is unchanged. As to the kind of experiment: FACS, antibody before secretory IgA on HEK293F-huCD89; IgA detected.
For assay [16] the target is unchanged. As to the kind of experiment: FACS on HEK293F-huCD89.
Assay [17] has as its target recombinant C-terminal polyhistidine-tagged human (extracellular) CD89 (Sino Biological) (human) (UniProt P24071). Kind of assay: ELISA, antibody before serum IgA on coated rhuCD89; IgA detected. (ELISA stands for enzyme-linked immunosorbent assay.)
The target of assay [18] is membrane-bound full-length human CD89 on HEK293F cells (human) (UniProt P24071). Kind of assay: FACS, unlabelled antibody before MIP8a-PE on HEK293F-huCD89.
Assay [19] addresses recombinant C-terminal polyhistidine-tagged human (extracellular) CD89 (Sino Biological) (human) (UniProt P24071). As to the kind of experiment: ELISA on coated rhuCD89.
Assay [20] concerns the target membrane human CD89 on ex vivo primary human neutrophilic granulocytes or monocytic U937 cells (human) (UniProt P24071).
In assay [21] the target is membrane-bound full-length human CD89 on HEK293F cells (human) (UniProt P24071). Kind of assay: FACS, antibody before serum IgA on HEK293F-huCD89; IgA detected.

Regarding “mouse anti-human CD89 antibody clone A3 (Santa Cruz Biotechnology)”, the maximum inhibition of IgA binding in assay [1], in assay [4], in assay [10] and in [11] was 60% throughout. Also, the IC50 (read off the curve) in [2] worked out at 0.4 µg/mL; in assay [5], 0.4 µg/mL; in assay [8], 0.4 µg/mL; in assay [9], 0.7 µg/mL; in assay [13] it was 0.8 µg/mL. Also, the % blocking of PE-MIP8a binding in [3] was under 25%. In addition, the % blocking of PE-A3 binding in assay [6] is over 90%. In [7], the % blocking of PE-A59 binding is over 90%. Further, in [12], the % blocking of IgA binding was found to be 60%.

In the case of “mouse anti-human CD89 antibody clone A59 (BD Biosciences)”, the maximum inhibition of IgA binding in [1], in [4], in [10] and in [11] was 60% in each case. In addition, the % blocking of PE-MIP8a binding in assay [3] was under 25%. The IC50 (read off the curve) stood at 0.6 µg/mL in assay [14], 1 µg/mL in assay [9] and 1 µg/mL in [13]. Moreover, the % blocking of PE-A3 binding in [6] was over 90%. This substance registered a % blocking of PE-A59 binding in [7] of over 90%. In addition, the % blocking of IgA binding in [12] worked out at 60%.

For the substance “mouse anti-human CD89 antibody clone MIP8a (BioRad)”, the IC50 (read off the curve) in [2] amounted to 0.2 µg/mL; in [15] it was 0.4 µg/mL; in assay [17], 0.07 µg/mL; in assay [5], 0.2 µg/mL; in [18] it was 0.3 µg/mL; in assay [8], 0.2 µg/mL. The figures for the IC50 (read off the curve) in assay [9], in [21] and in assay [13] were 0.7 µg/mL, 0.2 µg/mL and 0.7 µg/mL, respectively. The % blocking of PE-MIP8a binding in assay [3] was over 90%. Moreover, the EC50 (read off the curve) in [16] was determined as 0.2 µg/mL; in assay [19], 0.02 µg/mL. Moreover, in assay [6], the % blocking of PE-A3 binding was 55%. The IC50 (read off the bars), binding of granulocytes to plate-bound serum IgA [Donor 3] in assay [20] was determined as 0.6 µg/mL. Further, the % blocking of PE-A59 binding in [7] came out at 50%.

A word on the EC50 (read off the curve): it is the concentration needed to bring the measured effect to its halfway point.
